In experiment [1] the target is LRP4-HA mutant p.Tyr607Cys (c.1820A > G; LRP4-Mut), expressed in HEK293T cells (human) (UniProt O75096).
The target is the same in experiment [2]. The experiment is described as follows: pull-down; LRP4-HA (wild-type or mutated) from transfected HEK293T cells immobilised on beads with anti-HA antibody, incubated with or without recombinant agrin (1 µg/mL); western blot with anti-agrin antibody; N = 3 blots. (In western blotting, separated proteins are transferred to a membrane and probed.)

“recombinant rat agrin (neural agrin) (from UniProt P25304 1-1959) (ligand)”: the MuSK phosphorylation (anti-4G10 blot of immunoprecipitated MuSK-Flag) induced by agrin (0.4 µg/ml; 1, 3 and 6 h) in HEK293T cells expressing MuSK-Flag and mutant LRP4-HA, against wild-type LRP4-HA in experiment [1] came to 40 % decrease. Besides, in experiment [2], the percent decrease of binding against wild-type LRP4 is 80%.

These data come from PMC10462681.
